According to the supplement of paper PMC9732359:
± gives the uncertainty stated by the source.

Experiment: protein stability index of a GFP-peptide fusion (yeast GPS) (PSI 1-4); higher = more stable; sorted into four equal gates, so the index is relative within each strain
Method in brief: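 Plasmids isolated from each sorting gate were PCR-amplified and Illumina-sequenced, and barcodes assigned the reads to strains. The gates, four of equal size, were set by GFP/Cherry fluorescence ratio on mid-log cultures in leucine-free medium. These cultures were yeast carrying a pooled library of tiled 17-residue yeast protein peptides fused downstream of GFP on a plasmid that also expresses Cherry. The protein stability index is the sum of every gate's read frequency times its gate number.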

Sequence | protein stability index (doa10∆) | protein stability index (pdr5∆) | protein stability index (san1∆) | protein stability index (ubr1∆)
PKFGVEGLIRLDNLTED [DIS3] | 2.97 ± 0.074 | 2.86 ± 0.068 | 3.08 ± 0.043 | 3.07 ± 0.038
TLQTISFLGYLRYVKQI [ISW2] | 2.24 ± 0.044 | 1.71 ± 0.049 | 1.5 ± 0.094 | 1.96 ± 0.048
PFTDITVEGISKLLREH [RPB2] | 2.27 ± 0.076 | 2.4 ± 0.079 | 2.51 ± 0.077 | 2.42 ± 0.067
KTFKNPKYESLKLEYYN [RPN5] | 2.11 ± 0.083 | 1.49 ± 0.089 | 1.09 ± 0.23 | 1.25 ± 0.058
QENKNIDDENITKLNKE [SRB4] | 3.44 ± 0.056 | 3.23 ± 0.068 | 3.22 ± 0.052 | 3.46 ± 0.057
NIERKQTRKEYNTSILE [SIN4] | 3.11 ± 0.13 | 2.94 ± 0.062 | 3.05 ± 0.081 | 3.23 ± 0.082
VTHDCYRVTLESILQMN [RPC34] | 3.29 ± 0.28 | 2.39 ± 0.27 | 2.66 ± 0.16 | 
PFHSHLLVPASDLINKD [FAS1] | 1.83 ± 0.03 | 2.15 ± 0.035 | 2.13 ± 0.048 | 1.96 ± 0.032
LEHVLLVPTASFFIASQ [FAS1] | 1.25 ± 0.033 | 1.46 ± 0.038 | 1.45 ± 0.064 | 1.31 ± 0.027
SAKGPEIIPLQDYYIIG [MED6] | 3.18 ± 0.098 | 3.14 ± 0.054 | 3.14 ± 0.044 | 3.31 ± 0.063
AKKLPNGNWEVGVHIAD [DIS3] | 1.61 ± 0.16 | 2.25 ± 0.15 | 2.51 ± 0.19 | 3.25 ± 0.16
RPSITEAMMLKEEGLQQ [MED1] | 3.41 ± 0.25 | 3.65 ± 0.2 | 3.16 ± 0.061 | 2.94 ± 0.21
RGPYLVIVPLSTLSNWS [SNF2] | 1.84 ± 0.051 | 2.32 ± 0.062 | 2.17 ± 0.065 | 2.41 ± 0.035
QNIKAPSVKRQKMAELE [PRP8] | 3.29 ± 0.088 | 3.25 ± 0.07 | 3.3 ± 0.074 | 3.29 ± 0.077
ESSLTISLYFNDILDEL [ECM29] | 1.89 ± 0.06 | 2.25 ± 0.051 | 2.38 ± 0.07 | 2.4 ± 0.061
KNGTIVKKAVTVHSKSR [RPL19A] | 2.44 ± 0.068 | 2.8 ± 0.068 | 2.45 ± 0.079 | 1.96 ± 0.068
AVVVGTGNIKHEDLVNS [COR1] | 3.05 ± 0.11 | 2.79 ± 0.12 | 2.93 ± 0.077 | 2.71 ± 0.11
LDELQWKSPEWIQVFGL [MED6] | 2.24 ± 0.078 | 2.41 ± 0.053 | 2.62 ± 0.071 | 2.56 ± 0.066
NNAVRFSKQCLISNAIY [ECM29] | 1.7 ± 0.078 | 2.39 ± 0.088 | 1.82 ± 0.11 | 1.08 ± 0.094
DGDASKPAFSFGAKSDE [YJL041W/NSP1] | 3.32 ± 0.064 | 3.26 ± 0.053 | 3.15 ± 0.037 | 3.43 ± 0.044

Sequence | protein stability index (doa10∆) | protein stability index (pdr5∆) | protein stability index (san1∆) | protein stability index (ubr1∆)
NPNPSSQRAQVVTMSVK [RPC37] | 2.3 ± 0.067 | 2.83 ± 0.071 | 2.1 ± 0.068 | 2.42 ± 0.075
QRRTNNSGVGSAKGPEI [MED6] |  |  | 3.23 ± 0.19 | 
QDVIKVLYQSNATHDED [SWP82] | 2.91 ± 0.043 | 2.89 ± 0.04 | 2.69 ± 0.04 | 2.881 ± 0.028
RNPDIYTREFVEAIRRS [NUT2] | 2.42 ± 0.068 | 2.15 ± 0.055 | 2.84 ± 0.15 | 3.02 ± 0.054
NSTDGAKITEIGSTSKR [YIL149C/MLP2] | 3.02 ± 0.12 | 2.91 ± 0.086 | 3.01 ± 0.074 | 3.18 ± 0.062
HASFLCSFITQDKMFVS [FAS1] | 2.01 ± 0.063 | 1.64 ± 0.056 | 1.35 ± 0.1 | 1.35 ± 0.033
NIVKLCFVHRYKDVSDL [IRR1] | 2.68 ± 0.084 | 2.71 ± 0.059 | 2.87 ± 0.055 | 2.89 ± 0.058
YWYEQDSAKEWPQSKNC [RPB3] | 3.4 ± 0.12 | 3.3 ± 0.13 | 2.98 ± 0.13 | 3.43 ± 0.22
KALPMLEQVEFEKNTIL [MED4] | 3.02 ± 0.07 | 3.04 ± 0.083 | 2.65 ± 0.064 | 3.08 ± 0.083
DIRKFLDGIYVSHKGFI [RPL9A] | 1.39 ± 0.1 | 2.08 ± 0.077 | 1.77 ± 0.16 | 3.23 ± 0.1
FVAKLAAQIFGSYNAFE [COR1] | 1.68 ± 0.043 | 1.74 ± 0.048 | 1.63 ± 0.081 | 2.13 ± 0.046
DYPFTQLGYIENSFYKK [POP1] |  | 3.14 ± 0.17 | 2.98 ± 0.1 | 3.44 ± 0.13
GLKRSQLDEFKNKYLKD [SWP82] | 3.11 ± 0.13 | 2.89 ± 0.21 | 2.89 ± 0.12 | 2.69 ± 0.17
RYPMNLLEFIIDEIAYL [ECM29] | 2.43 ± 0.097 | 2.89 ± 0.1 | 2.75 ± 0.091 | 2.89 ± 0.2
APVETKKKRFEIKKWTA [HRT1] | 3.15 ± 0.094 | 3.48 ± 0.13 | 2.93 ± 0.12 | 3.27 ± 0.09
LKTRYVGRQDPKKHLSE [RPN11] | 3.08 ± 0.087 | 3.11 ± 0.18 | 3.3 ± 0.078 | 3.26 ± 0.12
ESNRQSVIVDSKVTVPP [ESC2] | 2.47 ± 0.11 | 2.87 ± 0.082 | 2.81 ± 0.079 | 2.81 ± 0.048
NGTVNNNSALSNVNSDI [RPT3] | 2.91 ± 0.1 | 2.77 ± 0.067 | 1.81 ± 0.087 | 2.15 ± 0.051
AEQPLPVSPLDIYSDEA [RPS2] | 2.79 ± 0.07 | 2.97 ± 0.064 | 2.9 ± 0.038 | 2.92 ± 0.052
NGGKFSKSNLIHNYDSK [RGR1] | 2.4 ± 0.058 | 2.71 ± 0.06 | 3.11 ± 0.047 | 2.7 ± 0.064
